Source: IntAct's records for PubMed 35512704

B1: Mothers against decapentaplegic homolog 4 (Homo sapiens), Q13485 (parent)
chain: MDNMSITNTPTSNDACLSIVHSLMCHRQGGESETFAKRAIESLVKKLKEKKDELDSLITAITTNGAHPSKCVTIQRTLDGRLQVAGRKGFPHVIYARLWRWPDLHKNELKHVKYCQYAFDLKCDSVCVNPYHYERVVSPGIDLSGLTLQSNAPSSMMVKDEYVHDFEGQPSLSTEGHSIQTIQHPPSNRASTETYSTPALLAPSESNATSTANFPNIPVASTSQPASILGGSHSEGLLQIASGPQPGQQQNGFTGQPATYHHNSTTTWTGSRTAPYTPNLPHHQNGHLQHHPPMPPHPGHYWPVHNELAFQPPISNHPAPEYWCSIAYFEMDVQVGETFKVPSSCPIVTVDGYVDPSGGDRFCLGQLSNVHRTEAIERARLHIGKGVQLECKGEGDVWVRCLSDHAVFVQSYYLDREAGRAPGDAVHKIYPSAYIKVFDLRQCHRQMQQQAATAQAAAAAQAAAVAGNIPGPGSVGGIAPAISLSAAAGIGVDDLRRLCILRMSFVKGWGPDYPRQSIKETPCWIEIHLHRALQLLDEVLHTMPIADPQPLD
partner: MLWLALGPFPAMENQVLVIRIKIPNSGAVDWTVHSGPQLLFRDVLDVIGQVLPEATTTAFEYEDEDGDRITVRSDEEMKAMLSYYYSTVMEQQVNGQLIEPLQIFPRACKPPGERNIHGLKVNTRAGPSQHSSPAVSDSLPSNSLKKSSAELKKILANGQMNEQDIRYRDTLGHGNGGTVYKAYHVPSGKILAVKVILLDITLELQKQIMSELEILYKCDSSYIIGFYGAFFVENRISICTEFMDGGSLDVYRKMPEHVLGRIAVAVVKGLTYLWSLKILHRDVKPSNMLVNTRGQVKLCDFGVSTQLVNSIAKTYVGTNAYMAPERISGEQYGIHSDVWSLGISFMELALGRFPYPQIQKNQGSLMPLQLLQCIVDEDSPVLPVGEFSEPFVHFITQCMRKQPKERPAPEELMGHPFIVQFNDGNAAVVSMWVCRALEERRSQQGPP
B2: Mothers against decapentaplegic homolog 4 (Homo sapiens), Q13485 (parent)
chain: B1 chain
partner: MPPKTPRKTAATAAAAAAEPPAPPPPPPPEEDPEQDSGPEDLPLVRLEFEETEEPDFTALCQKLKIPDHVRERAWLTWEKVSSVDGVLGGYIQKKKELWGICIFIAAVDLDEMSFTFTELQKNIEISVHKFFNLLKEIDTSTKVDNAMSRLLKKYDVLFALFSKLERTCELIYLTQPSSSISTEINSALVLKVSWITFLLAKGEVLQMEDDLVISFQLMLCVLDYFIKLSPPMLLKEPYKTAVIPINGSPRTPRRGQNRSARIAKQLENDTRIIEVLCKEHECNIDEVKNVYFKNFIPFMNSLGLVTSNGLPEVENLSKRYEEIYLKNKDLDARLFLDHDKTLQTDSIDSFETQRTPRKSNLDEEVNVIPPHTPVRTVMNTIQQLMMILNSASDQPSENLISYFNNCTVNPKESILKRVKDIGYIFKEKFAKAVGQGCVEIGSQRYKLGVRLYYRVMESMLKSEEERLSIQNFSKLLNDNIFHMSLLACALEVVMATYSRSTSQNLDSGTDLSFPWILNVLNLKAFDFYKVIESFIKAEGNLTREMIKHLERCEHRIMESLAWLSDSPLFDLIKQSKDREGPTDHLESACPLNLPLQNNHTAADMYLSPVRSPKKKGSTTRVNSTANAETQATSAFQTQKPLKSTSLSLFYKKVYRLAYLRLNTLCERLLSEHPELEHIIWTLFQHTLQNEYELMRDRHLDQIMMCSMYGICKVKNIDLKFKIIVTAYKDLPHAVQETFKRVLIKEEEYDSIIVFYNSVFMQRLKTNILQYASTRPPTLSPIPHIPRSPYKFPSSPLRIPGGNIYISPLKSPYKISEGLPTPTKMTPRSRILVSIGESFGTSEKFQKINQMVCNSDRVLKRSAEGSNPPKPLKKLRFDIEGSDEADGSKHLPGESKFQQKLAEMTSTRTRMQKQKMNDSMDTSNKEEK
B3: Mothers against decapentaplegic homolog 4 (Homo sapiens), Q13485 (parent)
chain: B1 chain
partner: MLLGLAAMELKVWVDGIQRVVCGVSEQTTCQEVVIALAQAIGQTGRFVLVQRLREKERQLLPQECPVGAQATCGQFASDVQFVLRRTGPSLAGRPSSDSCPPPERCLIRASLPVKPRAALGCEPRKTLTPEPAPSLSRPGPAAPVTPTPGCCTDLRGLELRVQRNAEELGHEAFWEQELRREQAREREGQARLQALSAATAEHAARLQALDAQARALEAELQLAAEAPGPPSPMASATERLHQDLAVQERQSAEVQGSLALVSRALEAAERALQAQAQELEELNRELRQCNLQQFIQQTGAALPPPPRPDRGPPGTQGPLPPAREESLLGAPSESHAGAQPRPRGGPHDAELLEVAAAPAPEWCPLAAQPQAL
B4: Mothers against decapentaplegic homolog 4 (Homo sapiens), Q13485 (parent)
chain: B1 chain
partner: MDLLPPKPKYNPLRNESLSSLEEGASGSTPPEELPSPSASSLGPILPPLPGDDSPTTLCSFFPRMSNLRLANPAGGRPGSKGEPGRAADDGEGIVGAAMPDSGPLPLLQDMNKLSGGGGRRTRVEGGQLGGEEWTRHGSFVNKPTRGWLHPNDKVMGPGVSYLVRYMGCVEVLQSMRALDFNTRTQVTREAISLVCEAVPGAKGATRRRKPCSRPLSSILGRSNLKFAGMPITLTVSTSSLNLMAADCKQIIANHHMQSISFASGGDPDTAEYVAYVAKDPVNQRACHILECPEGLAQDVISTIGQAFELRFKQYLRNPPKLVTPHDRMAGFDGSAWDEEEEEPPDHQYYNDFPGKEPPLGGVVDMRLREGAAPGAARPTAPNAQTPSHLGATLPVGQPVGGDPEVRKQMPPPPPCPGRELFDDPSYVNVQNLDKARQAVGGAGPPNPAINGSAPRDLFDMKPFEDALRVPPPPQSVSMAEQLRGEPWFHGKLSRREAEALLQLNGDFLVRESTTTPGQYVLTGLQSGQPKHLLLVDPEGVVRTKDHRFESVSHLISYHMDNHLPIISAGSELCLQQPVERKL
B5: Mothers against decapentaplegic homolog 4 (Homo sapiens), Q13485 (parent)
chain: B1 chain
partner: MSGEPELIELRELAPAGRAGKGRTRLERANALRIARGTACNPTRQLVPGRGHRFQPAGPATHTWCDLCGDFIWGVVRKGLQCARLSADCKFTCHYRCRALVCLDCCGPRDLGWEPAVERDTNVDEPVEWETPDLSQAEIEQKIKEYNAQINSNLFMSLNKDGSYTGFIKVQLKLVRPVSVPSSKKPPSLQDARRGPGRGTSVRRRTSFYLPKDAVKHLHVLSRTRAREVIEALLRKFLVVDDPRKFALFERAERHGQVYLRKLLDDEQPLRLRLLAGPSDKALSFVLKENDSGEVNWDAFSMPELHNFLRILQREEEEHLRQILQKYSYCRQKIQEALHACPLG
B6: Mothers against decapentaplegic homolog 4 (Homo sapiens), Q13485 (parent)
chain: B1 chain
partner: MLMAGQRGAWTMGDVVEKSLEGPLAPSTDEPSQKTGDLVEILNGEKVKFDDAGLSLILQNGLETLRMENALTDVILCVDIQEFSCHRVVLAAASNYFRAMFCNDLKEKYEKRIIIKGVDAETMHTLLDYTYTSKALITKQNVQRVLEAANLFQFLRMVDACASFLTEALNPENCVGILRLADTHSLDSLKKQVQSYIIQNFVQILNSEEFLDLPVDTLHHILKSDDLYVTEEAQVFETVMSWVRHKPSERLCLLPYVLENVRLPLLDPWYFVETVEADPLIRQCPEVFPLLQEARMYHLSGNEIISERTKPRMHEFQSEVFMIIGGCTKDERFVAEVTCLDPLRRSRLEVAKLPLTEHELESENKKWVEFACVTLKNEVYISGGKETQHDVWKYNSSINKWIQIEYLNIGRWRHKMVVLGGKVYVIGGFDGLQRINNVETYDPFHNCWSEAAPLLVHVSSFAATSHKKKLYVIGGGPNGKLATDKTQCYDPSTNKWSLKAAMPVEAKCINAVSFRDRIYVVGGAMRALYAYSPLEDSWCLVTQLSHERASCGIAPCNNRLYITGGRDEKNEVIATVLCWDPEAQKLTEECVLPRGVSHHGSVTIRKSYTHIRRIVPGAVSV
B7: Mothers against decapentaplegic homolog 4 (Homo sapiens), Q13485 (parent)
chain: B1 chain
partner: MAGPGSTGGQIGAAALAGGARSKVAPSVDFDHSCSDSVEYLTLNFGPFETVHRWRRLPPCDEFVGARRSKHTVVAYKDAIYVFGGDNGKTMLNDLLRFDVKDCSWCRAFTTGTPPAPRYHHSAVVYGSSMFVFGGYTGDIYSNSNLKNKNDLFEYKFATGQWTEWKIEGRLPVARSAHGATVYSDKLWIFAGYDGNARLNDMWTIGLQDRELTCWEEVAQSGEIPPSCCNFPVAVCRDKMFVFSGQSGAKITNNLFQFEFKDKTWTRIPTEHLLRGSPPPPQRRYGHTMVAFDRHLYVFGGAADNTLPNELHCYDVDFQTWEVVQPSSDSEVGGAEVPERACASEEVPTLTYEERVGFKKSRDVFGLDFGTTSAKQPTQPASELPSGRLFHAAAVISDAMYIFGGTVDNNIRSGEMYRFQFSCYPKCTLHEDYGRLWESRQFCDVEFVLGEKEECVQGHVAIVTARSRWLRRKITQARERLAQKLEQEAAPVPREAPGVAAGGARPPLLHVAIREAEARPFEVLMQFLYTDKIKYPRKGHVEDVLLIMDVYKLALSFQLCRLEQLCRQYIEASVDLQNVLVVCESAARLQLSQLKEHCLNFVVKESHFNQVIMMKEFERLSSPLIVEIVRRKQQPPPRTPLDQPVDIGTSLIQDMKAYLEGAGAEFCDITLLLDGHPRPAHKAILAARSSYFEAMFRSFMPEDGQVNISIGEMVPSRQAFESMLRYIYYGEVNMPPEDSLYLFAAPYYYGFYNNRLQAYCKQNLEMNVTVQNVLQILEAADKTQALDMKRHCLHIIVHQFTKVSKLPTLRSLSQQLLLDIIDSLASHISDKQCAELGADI

Variants of: B1
Conditions: with mp2k5_human MAP2K5, Q13163

effect of a mutation on the interaction	Variant
with no effect	D351H

Variants of: B2
Conditions: with rb_human RB1, P06400

effect of a mutation on the interaction	Variant
with no effect	D351H

Variants of: B3
Conditions: with rasf7_human RASSF7, Q02833

effect of a mutation on the interaction	Variant
with no effect	D351H

Variants of: B3
Conditions: with rasf7_human RASSF7, Q02833
Remark: another data set of the same source

effect of a mutation on the interaction	Variant
with no effect	G386D

Variants of: B3
Conditions: with rasf7_human RASSF7, Q02833
Remark: another data set of the same source

effect of a mutation on the interaction	Variant
with no effect	R361C

Variants of: B3
Conditions: with rasf7_human RASSF7, Q02833
Remark: another data set of the same source

effect of a mutation on the interaction	Variant
with no effect	R361H

Variants of: B4
Conditions: with shc1_human SHC1, P29353

effect of a mutation on the interaction	Variant
with no effect	D351H

Variants of: B4
Conditions: with shc1_human SHC1, P29353
Remark: another data set of the same source

effect of a mutation on the interaction	Variant
with no effect	G386D

Variants of: B4
Conditions: with shc1_human SHC1, P29353
Remark: another data set of the same source

effect of a mutation on the interaction	Variant
with no effect	R361H

Variants of: B4
Conditions: with shc1_human SHC1, P29353
Remark: another data set of the same source

effect of a mutation on the interaction	Variant
with no effect	R361C

Variants of: B5
Conditions: with rasf1_human RASSF1, Q9NS23

effect of a mutation on the interaction	Variant
with no effect	D351H

Variants of: B5
Conditions: with rasf1_human RASSF1, Q9NS23
Remark: another data set of the same source

effect of a mutation on the interaction	Variant
with no effect	G386D

Variants of: B5
Conditions: with rasf1_human RASSF1, Q9NS23
Remark: another data set of the same source

effect of a mutation on the interaction	Variant
with no effect	R361C

Variants of: B5
Conditions: with rasf1_human RASSF1, Q9NS23
Remark: another data set of the same source

effect of a mutation on the interaction	Variant
with no effect	R361H

Variants of: B6
Conditions: with klhl6_human KLHL6, Q8WZ60

effect of a mutation on the interaction	Variant
with no effect	G386D

Variants of: B6
Conditions: with klhl6_human KLHL6, Q8WZ60
Remark: another data set of the same source

effect of a mutation on the interaction	Variant
causing an interaction	G386D

Variants of: B6
Conditions: with klhl6_human KLHL6, Q8WZ60
Remark: another data set of the same source

effect of a mutation on the interaction	Variant
with no effect	R361C

Variants of: B6
Conditions: with klhl6_human KLHL6, Q8WZ60
Remark: another data set of the same source

effect of a mutation on the interaction	Variant
with no effect	R361H

Variants of: B6
Conditions: with klhl6_human KLHL6, Q8WZ60
Remark: another data set of the same source

effect of a mutation on the interaction	Variant
with no effect	D351H

Variants of: B7
Conditions: with lztr1_human LZTR1, Q8N653

effect of a mutation on the interaction	Variant
with no effect	R361C

Variants of: B7
Conditions: with lztr1_human LZTR1, Q8N653
Remark: another data set of the same source

effect of a mutation on the interaction	Variant
decreasing interaction strength	R361C
decreasing interaction strength	R361H

Variants of: B7
Conditions: with lztr1_human LZTR1, Q8N653
Remark: another data set of the same source

effect of a mutation on the interaction	Variant
with no effect	R361H
